Source: patent US20190100587A1 (COVAGEN, published 2019)
Numbering of substitutions follows the chain as printed. Names may count otherwise. Like-named read-outs stand apart in the source and are kept apart here.

Key:
[1] = molecular target: T1, His-tagged human FcγRI (R&D, carrier-free formulation) (human, UniProt P12314 16-288); experiment: AlphaScreen competition on His-tagged FcγRI; competitor biotinylated B21M LALA IgG1
T1 construct: also called CD64; human FcγR1

[2] = molecular target: T1, His-tagged human FcγRI (R&D, …); experiment: AlphaScreen competition on His-tagged FcγRI
[3] = molecular target: T2, human recombinant FcγRI (Sino Biological) (human, UniProt P12314 16-288, limits assumed); experiment: SPR (BIAcore), FcγRI on chip, 1:1 Langmuir model
T2 construct: Amine-coupled to a BIAcore CM5 chip (1500 RU); also called CD64

[4] = molecular target: T1, His-tagged human FcγRI (R&D, …); experiment: AlphaScreen competition on His-tagged FcγRI; competitor biotinylated B21M LALA IgG1; remark: listed apart in the source
[5] = molecular target: T3, human recombinant FcγRIIIA (158F; R&D Systems) (human, UniProt P08637 17-208); experiment: SPR (BIAcore), human FcγRIIIA (158F) amine-coupled on a CM5 chip, antibody injected
T3 construct: Amine-coupled to a BIAcore CM5 chip (1400 RU); also called CD16A

[6] = molecular target: T2, human recombinant FcγRI (Sino …); experiment: SPR (BIAcore), FcγRI on chip, steady-state model
[7] = molecular target: T2, human recombinant FcγRI (Sino …); experiment: SPR (BIAcore), FcγRI on chip, kinetic (koff/kon)
[8] = molecular target: T4, human CD3 on CD3+ Jurkat cells (human); experiment: flow cytometry on CD3+ Jurkat cells, bound antibody detected with anti-human IgG-Alexa488
T4 construct: whole, on cells

[9] = molecular target: T1, His-tagged human FcγRI (R&D, …); experiment: AlphaScreen competition assay; titrated antibody competes with biotinylated B21M LALA IgG1 for His-tagged human FcγRI
[10] = molecular target: T5, His-tagged human FcγRIIB (R&D, carrier-free formulation) (human, UniProt P31994 46-217, limits assumed); experiment: AlphaScreen competition assay; titrated antibody competes with biotinylated B21M IgG1 for His-tagged human FcγRIIB
T5 construct: also called CD32B
T5 sequence (looked up): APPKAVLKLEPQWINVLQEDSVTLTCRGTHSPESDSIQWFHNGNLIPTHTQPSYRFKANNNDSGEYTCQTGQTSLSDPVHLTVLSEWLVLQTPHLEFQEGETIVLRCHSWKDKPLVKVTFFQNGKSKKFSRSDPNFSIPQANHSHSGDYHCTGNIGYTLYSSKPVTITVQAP

[11] = molecular target: T3, human recombinant FcγRIIIA (158F; R&D …); experiment: SPR (BIAcore), FcγRIIIA 158F on chip, kinetic (koff/kon)
[12] = molecular target: T3, human recombinant FcγRIIIA (158F; R&D …); experiment: SPR (BIAcore), FcγRIIIA 158F on chip, steady-state model
[13] = molecular target: T3, human recombinant FcγRIIIA (158F; R&D …); experiment: SPR (BIAcore), FcγRIIIA 158F on chip, 1:1 Langmuir model
[14] = molecular target: T1, His-tagged human FcγRI (R&D, …); experiment: AlphaScreen competition assay; titrated antibody competes with biotinylated B21M LALA IgG1 for His-tagged human FcγRI; remark: listed apart in the source

B1: Anti-PD1 mAb DANAPA IgG1 (antibody)
heavy: QVQLQQSGAELVKPGASVKMSCKAFGYTFTTYPIEWMKQNHGKSLEWIGNFHPYNDDTKYNEKFKGKAKLTVEKSSTTVYLELSRLTSDDSAVYYCARENYGSHGGFVYWGQGTLVTVSAASTKGPSVFPLAPSSKSTSGGTAALGCLVKDYFPEPVTVSWNSGALTSGVHTFPAVLQSSGLYSLSSVVTVPSSSLGTQTYICNVNHKPSNTKVDKKVEPKSCDKTHTCPPCPAPELLGGPSVFLFPPKPKDTLMISRTPEVTCVVVAVSHEDPEVKFNWYVDGVEVHNAKTKPREEQYASTYRVVSVLTVLHQDWLNGKEYKCKVSNKALAAPIEKTISKAKGQPREPQVYTLPPSREEMTKNQVSLTCLVKGFYPSDIAVEWESNGQPENNYKTTPPVLDSDGSFFLYSKLTVDKSRWQQGNVFSCSVMHEALHNHYTQKSLSLSPGK
light: ENVLTQSPAIMSASPGEKVTMTCRASSSVISSYLHWYQQKSGASPKLWIYSTSNLASGVPDRFSGSGSGTSYSLTISSVEAEDAATYYCQQYNGYPLTFGAGTKLEIKRTVAAPSVFIFPPSDEQLKSGTASVVCLLNNFYPREAKVQWKVDNALQSGNSQESVTEQDSKDSTYSLSSTLTLSKADYEKHKVYACEVTHQGLSSPVTKSFNRGEC
notes: DANAPA IgG1 format; also called anti-PD1 antibody; PD-1 specific antibody
**Q.** For B1, which IC50 [1] is on record?
**A.** Its IC50 is ≥ 600 nM.

B2: mAb1 DAPA IgG1 (antibody)
heavy: not shown
light: QVVLTQSPAIMSAFPGEKVTMTCSASSSVSYMNWYQQKSGTSPKRWIYDSSKLASGVPARFSGSGSGTSYSLTISSMETEDAATYYCQQWSRNPPTFGGGTKLQITRTVAAPSVFIFPPSDEQLKSGTASVVCLLNNFYPREAKVQWKVDNALQSGNSQESVTEQDSKDSTYSLSSTLTLSKADYEKHKVYACEVTHQGLSSPVTKSFNRGEC
**Q.** Which “fold stronger binding than mAb1 DANAPA IgG1” value [2] does the source give for B2 here?
**A.** Its value is > 37 fold.

**Q.** And the koff [3]?
**A.** The koff was 0.0595 s⁻¹.

**Q.** And the kon [3]?
**A.** Its kon is 103000 M⁻¹ s⁻¹.

**Q.** What about the IC50 [4] of the same binder?
**A.** The IC50 was 17.7 nM.

**Q.** What about the “IC50 relative to IgG1” value [4] of the same binder?
**A.** The value was 7.8 fold.

**Q.** Does B2 bind [5]?
**A.** Result: no binding (tested: 2000 nM)

**Q.** And the Kd [6]?
**A.** Its Kd is 1190 nM.

**Q.** And the Kd [7]?
**A.** The Kd was 575 nM.

**Q.** What about the “EC50 (read off the curve)” value [8] of the same binder?
**A.** The value was ~0.1 nM.

B3: mAb1 N297A IgG1 (antibody)
heavy: not shown
light: B2 light
notes: mAb1 with Fc mutation N297A (EU numbering)
**Q.** How did the “fold stronger binding than mAb1 DANAPA IgG1” value [2] turn out when B3 was run?
**A.** The value was > 37 fold.

**Q.** What about the koff [3] of the same binder?
**A.** Its koff is 0.112 s⁻¹.

**Q.** And the kon [3]?
**A.** The kon was 152000 M⁻¹ s⁻¹.

**Q.** What about the IC50 [4] of the same binder?
**A.** Its IC50 is 23.9 nM.

**Q.** And the “IC50 relative to IgG1” value [4]?
**A.** The value was 10.5 fold.

**Q.** Does B3 bind [5]?
**A.** Result: no binding (tested: 2000 nM)

**Q.** What about the Kd [6] of the same binder?
**A.** Its Kd is 1510 nM.

**Q.** What about the Kd [7] of the same binder?
**A.** Its Kd is 737 nM.

**Q.** And the “EC50 (read off the curve)” value [8]?
**A.** Its value is ~0.1 nM.

B4: mAb1 DENQPS IgG1 (antibody)
heavy: QVQLQQSGAELARPGASVKMSCKASGYTFTRSTMHWVKQRPGQGLEWIGYINPSSAYTNYNQKFKDKATLTADKSSSTAYMQLSSLTSEDSAVYYCASPQVHYDYNGFPYWGQGTLVTVSAASTKGPSVFPLAPSSKSTSGGTAALGCLVKDYFPEPVTVSWNSGALTSGVHTFPAVLQSSGLYSLSSVVTVPSSSLGTQTYICNVNHKPSNTKVDKKVEPKSCDKTHTCPPCPAPELLGGPSVFLFPPKPKDTLMISRTPEVTCVVVEVSHEDPEVKFNWYVDGVEVHNAKTKPREEQYQSTYRVVSVLTVLHQDWLNGKEYKCKVSNKALSAPIEKTISKAKGQPREPQVYTLPPSREEMTKNQVSLTCLVKGFYPSDIAVEWESNGQPENNYKTTPPVLDSDGSFFLYSKLTVDKSRWQQGNVFSCSVMHEALHNHYTQKSLSLSPGK
light: B2 light
notes: mAb1 with D265E, N297Q, P329S (EU numbering)
**Q.** Does B4 bind [9]?
**A.** Result: binds

B5: mAb1 LALA IgG1 (antibody)
heavy: not shown
light: B2 light
notes: mAb1 with Fc mutations L234A, L235A (EU numbering)
**Q.** Does B5 bind [10]?
**A.** Result: binds

**Q.** And the “fold stronger binding than mAb1 DANAPA IgG1” value [2]?
**A.** The value was > 37 fold.

**Q.** And the IC50 [4]?
**A.** Its IC50 is 27.1 nM.

**Q.** And the “IC50 relative to IgG1” value [4]?
**A.** The value was 11.9 fold.

**Q.** And the Kd [11]?
**A.** Its Kd is 7.78 µM.

**Q.** What about the Kd [6] of the same binder?
**A.** The Kd was 1550 nM.

**Q.** And the Kd [12]?
**A.** The Kd was 13.8 µM.

**Q.** And the koff [13]?
**A.** The koff was 0.111 s⁻¹.

**Q.** And the kon [13]?
**A.** The kon was 14200 M⁻¹ s⁻¹.

**Q.** And the “EC50 (read off the curve)” value [8]?
**A.** Its value is ~0.1 nM.

B6: mAb1 DNNDPG IgG1 (antibody)
heavy: B4 heavy with E269N, Q301D, S333G
light: B2 light
notes: mAb1 with D265N, N297D, P329G (EU numbering)
**Q.** Does B6 bind [9]?
**A.** Result: binds

B7: mAb2 G1 C-LC DANAPA IgG1 (bispecific antibody)
heavy: EVQLVESGGGLVQPGGSLKLSCAASGFTFNTYAMNWVRQAPGKGLEWVARIRSKYNNYATYYADSVKDRFTISRDDSKNTAYLQMNSLKTEDTAVYYCVRHGNFGDSYVSWFAYWGQGTLVTVSSASTKGPSVFPLAPSSKSTSGGTAALGCLVKDYFPEPVTVSWNSGALTSGVHTFPAVLQSSGLYSLSSVVTVPSSSLGTQTYICNVNHKPSNTKVDKKVEPKSCDKTHTCPPCPAPELLGGPSVFLFPPKPKDTLMISRTPEVTCVVVAVSHEDPEVKFNWYVDGVEVHNAKTKPREEQYASTYRVVSVLTVLHQDWLNGKEYKCKVSNKALAAPIEKTISKAKGQPREPQVYTLPPSREEMTKNQVSLTCLVKGFYPSDIAVEWESNGQPENNYKTTPPVLDSDGSFFLYSKLTVDKSRWQQGNVFSCSVMHEALHNHYTQKSLSLSPGK
light: not shown
notes: also called CD3/CD33 bispecific FynomAb with Fynomer G1; FynomAb with the DANAPA IgG Fc
**Q.** For B7, which IC50 [1] is on record?
**A.** Its IC50 is 206 nM.

B8: mAb2 DANAPA IgG1 (antibody)
heavy: B7 heavy
light: QTVVTQEPSLTVSPGGTVTLTCRSSTGAVTTSNYANWVQQKPGQAPRGLIGGTNKRAPGTPARFSGSLLGGKAALTLSGVQPEDEAEYYCALWYSNLWVFGGGTKLTVLGQPKAAPSVTLFPPSSEELQANKATLVCLISDFYPGAVTVAWKADSSPVKAGVETTTPSKQSNNKYAASSYLSLTPEQWKSHRSYSCQVTHEGSTVEKTVAPTECS
notes: Humanized anti-CD3 antibody in DANAPA IgG1 format; also called anti-CD3 antibody mAb2; CD3-specific antibody mAb2
**Q.** How did the IC50 [1] turn out when B8 was run?
**A.** The IC50 was ≥ 600 nM.

B9: mAb2 D5 C-LC DANAPA IgG1 (bispecific antibody)
heavy: B7 heavy
light: not shown
notes: also called CD3/CD33 bispecific FynomAb with Fynomer D5; FynomAb with the DANAPA IgG Fc
**Q.** What does the source list for B9?
**A.** IC50 [1]: 800 nM; IC50 (read off the curve) [14]: ~200 nM
